Test [1] has as its target 30S initiation complex (30S subunit, IF3_(488), IF2, mRNA, GTP, fMet-tRNA^fMet) (UniProt P0A707). Briefly: FRET or BRET; stopped-flow chase as a1 (0.05 µM complex, 0.5 µM unlabelled IF1, TAKM7 buffer), with 100 µM Tigecycline (Tig). On the technique in general: BRET reads energy transfer from a luciferase to a nearby fluorophore.
Test [2] addresses 30S pre-initiation complex (30S subunit, IF3_(488), IF2, mRNA, GTP) (UniProt P0A707). The description is as above.
In test [3] the target is 30S–IF3_(488) complex (30S ribosomal subunit with bound Alexa-488-labelled IF3) (UniProt P0A707). The test is described as above.
Test [4] deals with 30S initiation complex (30S subunit, IF3_(488), IF2, mRNA, GTP, fMet-tRNA^fMet) (UniProt P0A707). Briefly: FRET or BRET; stopped-flow chase as a1 (0.05 µM complex, 0.5 µM unlabelled IF1, TAKM7 buffer), with 100 µM Demeclocycline (Dem).
The target of test [5] is 30S pre-initiation complex (30S subunit, IF3_(488), IF2, mRNA, GTP) (UniProt P0A707). The description is as above.
The target in test [6] is 30S–IF3_(488) complex (30S ribosomal subunit with bound Alexa-488-labelled IF3) (UniProt P0A707). Described as above.
Test [7] deals with 30S initiation complex (30S subunit, IF3_(488), IF2, mRNA, GTP, fMet-tRNA^fMet) (UniProt P0A707). Briefly: FRET or BRET; stopped-flow chase as a1 (0.05 µM complex, 0.5 µM unlabelled IF1, TAKM7 buffer), with 100 µM Oxytetracycline (Otc).
In test [8] the target is 30S pre-initiation complex (30S subunit, IF3_(488), IF2, mRNA, GTP) (UniProt P0A707). Described as above.
Test [9] concerns the target 30S–IF3_(488) complex (30S ribosomal subunit with bound Alexa-488-labelled IF3) (UniProt P0A707). The description is as above.
In test [10] the target is 30S initiation complex (30S subunit, IF3_(488), IF2, mRNA, GTP, fMet-tRNA^fMet) (UniProt P0A707). The description is as above. This is another data set of the same source.
Test [11] has the same target. Briefly: FRET or BRET; stopped-flow chase: 0.05 µM 30S complex with IF3_(488) (donor) and IF1_(540Q) (acceptor) mixed with 10-fold excess (0.5 µM) unlabelled IF1, donor fluorescence in time, single exponential fit; TAKM7 buffer (25 mM Tris-HCl pH 7.4, 70 mM NH4Ac, 30 mM KCl, 7 mM MgCl2); no tetracycline.
Test [12] addresses 30S pre-initiation complex (30S subunit, IF3_(488), IF2, mRNA, GTP) (UniProt P0A707). The test is described as above.
In test [13] the target is 30S–IF3_(488) complex (30S ribosomal subunit with bound Alexa-488-labelled IF3) (UniProt P0A707). The test is described as above.

Take “IF1 D4C labelled with Atto-540Q (natural protein)”: the koff is 0.015 s⁻¹ in [1]; 0.015 s⁻¹ in test [2]; 0.021 s⁻¹ in test [3]; 0.012 s⁻¹ in [4]; 0.02 s⁻¹ in test [5]; 0.2 s⁻¹ in test [6]. In addition, the koff came out at 0.03 s⁻¹ in [7]; 0.02 s⁻¹ in [8]; 0.26 s⁻¹ in [9]; 0.3 s⁻¹ in [10]; 0.02 s⁻¹ in test [11]; 0.03 s⁻¹ in test [12]. The substance also displayed a koff in test [13] of 0.3 s⁻¹.

One may read the koff as the rate constant with which the complex falls apart. A lower koff goes with slow dissociation.

Source of the values: publication PMC8273347.
